Experiments:
[1] = biological target: T1, AfAgo;AfAgo-N (Archaeoglobus fulgidus …, UniProt O28951;A0A075WKW4 1-427;1-250, |); assay: EMSA; 5 mM Mg2+; EMSA: 40 mM Tris-acetate, 1 mM EDTA, pH 8.4, 5 mM Mg(OAc)2, 0.1 mg/ml BSA, 1 mM DTT, 10% glycerol, room temperature (25 C), 1 h; conditions: protein: recombinant;recombinant, tags: ;His6-TEV (N-terminal), copies: 1;1, label: 5'-32P
[2] = biological target: T2, AfAgo (Archaeoglobus fulgidus DSM4304, UniProt O28951 1-427); assay: as above; conditions: protein: recombinant; label: 5'-32P; blunt
T2 sequence: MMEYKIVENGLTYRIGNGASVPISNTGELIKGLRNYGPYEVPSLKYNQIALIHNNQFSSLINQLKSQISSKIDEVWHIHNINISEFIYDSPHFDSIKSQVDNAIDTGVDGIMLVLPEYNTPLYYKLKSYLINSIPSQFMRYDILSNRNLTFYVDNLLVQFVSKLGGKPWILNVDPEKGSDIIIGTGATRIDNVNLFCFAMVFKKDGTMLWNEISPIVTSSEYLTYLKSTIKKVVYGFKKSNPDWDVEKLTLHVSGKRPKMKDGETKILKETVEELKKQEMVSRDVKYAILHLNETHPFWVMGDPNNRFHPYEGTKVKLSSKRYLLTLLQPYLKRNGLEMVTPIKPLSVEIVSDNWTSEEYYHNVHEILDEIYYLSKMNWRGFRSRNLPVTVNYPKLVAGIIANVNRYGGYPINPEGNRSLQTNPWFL

[3] = biological target: T1, AfAgo;AfAgo-N; assay: EMSA; preloaded guide, 5 mM Mg2+; EMSA: 40 mM Tris-acetate, 1 mM EDTA, pH 8.4, 5 mM Mg(OAc)2, 0.1 mg/ml BSA, 1 mM DTT, 10% glycerol, room temperature (25 C), 1 h; conditions: protein: recombinant;recombinant; tags: ;His6-TEV (N-terminal); copies: 1;1; label: 5'-32P target; g1-g8 complementary
[4] = biological target: T1, AfAgo;AfAgo-N; assay: cryo-EM; 2.83 A; EMSA: 40 mM Tris-acetate, 1 mM EDTA, pH 8.4, 5 mM Mg(OAc)2, 0.1 mg/ml BSA, 1 mM DTT, 10% glycerol, room temperature (25 C), 1 h; conditions: protein: recombinant;recombinant; tags: ;His6-TEV (N-terminal); copies: 1;1; 30 nt guide on 51 nt target with target overhangs
[5] = biological target: T1, AfAgo;AfAgo-N; assay: cryo-EM; 3.56 A; EMSA: 40 mM Tris-acetate, 1 mM EDTA, pH 8.4, 5 mM Mg(OAc)2, 0.1 mg/ml BSA, 1 mM DTT, 10% glycerol, room temperature (25 C), 1 h; conditions: protein: recombinant;recombinant; tags: ;His6-TEV (N-terminal); copies: 1;1; blunt
[6] = biological target: T1, AfAgo;AfAgo-N; assay: X-ray crystallography; 2.5 A; 5 mM Mg2+; EMSA: 40 mM Tris-acetate, 1 mM EDTA, pH 8.4, 5 mM Mg(OAc)2, 0.1 mg/ml BSA, 1 mM DTT, 10% glycerol, room temperature (25 C), 1 h; conditions: protein: recombinant;recombinant; tags: ;His6-TEV (N-terminal); copies: 1;1; 2 strands partially annealed, 3 bp, in crystal
[7] = biological target: T1, AfAgo;AfAgo-N; assay: SEC-SAXS; 5 mM Mg2+; SASDRX8; EMSA: 40 mM Tris-acetate, 1 mM EDTA, pH 8.4, 5 mM Mg(OAc)2, 0.1 mg/ml BSA, 1 mM DTT, 10% glycerol, room temperature (25 C), 1 h; conditions: protein: recombinant;recombinant; tags: ;His6-TEV (N-terminal); copies: 1;1; blunt, self-complementary

## AUUGUACACGGCCGAAU (ssRNA) [ssRNA MZ-1480]
[1]; single-stranded
  binding result: binds

## ATTGTACACGGCCGAAT (ssDNA) [ssDNA MZ-1447]
[1]; single-stranded
  binding result: binds

B1: dsDNA MZ-1447/1455 (dsDNA)
DNA 1: ATTGTACACGGCCGAAT
DNA 2: ATTCGGCCGTGTACAAT
modifications: 5'-phosphate
[1]; blunt
  binding result: binds
[2]
  binding result: binds

B2: RNA/DNA MZ-1480/1455 (DNA:RNA)
RNA: AUUGUACACGGCCGAAU
DNA: ATTCGGCCGTGTACAAT
modifications: 5'-phosphate
[1]; blunt
  binding result: binds
[2]
  binding result: binds

B3: gRNA MZ-1480 / tDNA MZ-1560 (DNA:RNA)
RNA: AUUGUACACGGCCGAAU
DNA: CGGAATATATGTACAAT
modifications: 5'-phosphate guide
[3]
  binding result: binds

B4: g30/t51 MZ-1745/MZ-1747 (DNA:RNA)
RNA: AGGAGGGCGGAGCCUAUGGAAAAACGCCAC
DNA: GCCGCGCCGGTGGCGTTTTTCCATAGGCTCCGCCCTCCTGCCAGAGTTCGC
modifications: 5'-phosphate guide
[4]
  binding result: binds

B5: g17/t17 MZ-1800/MZ-1455 (DNA:RNA)
RNA: AUUGUACACGGCCGAAU
DNA: ATTCGGCCGTGTACAAT
modifications: 5'-phosphate guide
[5]
  binding result: binds

## ATCGACCAGGCTACG (ssDNA, 5'-phosphate) [GS-851]
[6]
  binding result: binds

B6: MZ-1288 14 bp DNA (dsDNA)
DNA 1: ATTGTGGCCACAAT
DNA 2: ATTGTGGCCACAAT
modifications: 5'-phosphate
[7]
  binding result: binds

From PMC10954474, “https://orcid.org/0000-0002-6027-2265 Manakova Elena Institute of Biotechnology, Life Sciences Center, Vilnius University, Sauletekio av. 7, LT-10257, Vilnius, Lithuania”
